Assay results published in PMC5309781.

Columns and labels:
[1] = biological target: ZIKV NS1 β-ladder domain (NS1 172-352) T233A mutant (Zika virus, strain Suriname); experiment: AUC; sedimentation velocity, 2.95 mg/mL, 20 mM Hepes pH 7.4, 150 mM NaCl, 20 °C, 53,000 rpm, interference optics, continuous c(s) model in SEDFIT
[2] = biological target: ZIKV NS1 β-ladder domain (NS1 172-352), strain Suriname (Zika virus, strain Suriname); experiment: as above

For “ZIKV NS1 β-ladder domain (NS1 172-352) T233A mutant (domain or fragment)”, the percent of the protein in the monomeric state [1] was > 49% and the stoichiometry N [1] was 2.

“ZIKV NS1 β-ladder domain (NS1 172-352), strain Suriname (domain or fragment)” was tested, and the percent of the protein in the monomeric state [2] was 7.8% and the stoichiometry N [2] was 2.
